Entries after “also recorded” stand apart in the source; their conditions may differ.

The record followed here is US7189694B2, “Inhibitors of autophosphorylation protein kinases” (University of Florida Research Foundation, Inc., priority 2003, dated 2007).

The target of assay [1] is T1, recombinant human JAK2 (Homo sapiens, UniProt O60674).
T1 construct: purchased Upstate Biotechnology, Lake Placid, N.Y
Description: In vitro JAK2 kinase assay (32P, SDS-PAGE, autoradiography). Particulars: peptide at 50 μM. The format is biochemical. As to the method: Determination of JAK2 autophosphorylation activity was performed in reaction mixtures containing recombinant human JAK2 immobilized on agarose beads (Upstate Biotechnology, Lake Placid, N.Y.), 1 μCi/μl of [^32P]γ-ATP (Amersham Biosciences, Piscataway, N.J.), and either Tkip or JAK 2 WT peptide incubated in kinase buffer (10 mM HEPES [pH 7.4], 50 mM sodium chloride, 0.1 mM sodium orthovanadate, 5 mM magnesium chloride, 5 mM manganese chloride). JAK2 kinase assays were performed in 35 μL reaction volumes containing 10.5 μL Tkip, 20 μL JAK2 agarose beads, 1 μL sIFNGR-1, and 3.5 μL [^32P]γ-ATP incubated at 30° C. for 30 min with intermittent agitation. […] EGFR, VEGFR, and JAK2 kinase reactions were terminated with the addition of 5 μl 6×SDS sample buffer (0.5 M Tris-HCl [pH 6.8], 36% glycerol, 10% SDS, 9.3% DTT, 0.012% bromophenol blue). Incubation of JAK2 agarose beads in SDS sample buffer (100° C.) was designed to elute bound proteins from the agarose beads. The reaction mixtures were separated on a 10% SDS polyacrilamide gel. Autoradiography was used to determine phosphorylation activity.

Assay [2] deals with T2, VEGFR (Homo sapiens, UniProt P17948).
T2 construct: purchased Calbiochem, San Diego, Calif
Description: In vitro VEGFR autophosphorylation kinase assay. Format: biochemical. The conditions noted are these: peptide at 50 μM; FIG. 2B. As to the method:
(§1) In vitro Kinase Assays: Autophosphorylation activity of EGFR and VEGFR-1 was measured in a reaction mixture containing kinase buffer (20 mM Tris-HCl [pH 7.5], 2 mM dithioreitol, 50 mM potassium chloride, 0.3 mM sodium orthovanadate, 5 mM magnesium chloride, 10 mM glycerophosphate, 2 mM EGTA, […] manganese chloride), Tkip, substrates, and 5 μCi of [^32P]γ-ATP (specific activity 6000 Ci/mmol; 1 mCi=37 Mbq) (Amersham Biosciences, Piscataway, N.J.). EGFR and VEGFR in vitro kinase assays were carried out in 22.5 μL reaction volumes containing 10 μL Tkip, 2.5 μL substrates, and 10 μL [^32P]γ-ATP incubated at 30° C. for 10 min. EGFR (supplied precomplexed with EGF) was obtained from Upstate Biotechnology (Lake Placid, N.Y.). VEGFR and VEGF were obtained from Calbiochem (San Diego, Calif.) and Peprotech (Rocky Hill, N.J.), respectively.
(§2) Determination of JAK2 autophosphorylation activity was performed in reaction mixtures containing recombinant human JAK2 immobilized on agarose beads (Upstate Biotechnology, Lake Placid, N.Y.), 1 μCi/μl of [^32P]γ-ATP (Amersham Biosciences, Piscataway, N.J.), and either Tkip or JAK 2 WT peptide incubated in kinase buffer (10 mM HEPES [pH 7.4], 50 mM sodium chloride, 0.1 mM sodium orthovanadate, 5 mM magnesium chloride, 5 mM manganese chloride). […]

The target of assay [3] is T3, c-src (Homo sapiens, UniProt P12931).
T3 construct: purchased Upstate Biotechnology, Lake Placid, N.Y
Description: Src kinase assay with substrate peptide (P81 discs). Format: biochemical. Particulars: peptide at 50 μM; FIG. 2C. As to the method: (§3) Src kinase activity was performed with a Src substrate peptide (KVEKIGEGTYGVVYK) (SEQ ID NO. 73) using a Src kinase assay kit according to the manufacturer's specifications (Upstate Biotechnology, Lake Placid, N.Y.) according to the manufacturer's specifications. Briefly, Src substrate peptide was incubated in Src kinase buffer (100 mM Tris-HCl [pH 7.2], 125 mM MgCl2, 25 mM MnCl2, 2 mM EGTA, 0.02 mM Na3VO4, and 2 mM dithioreitol), 5 μCi of [^32P]γ-ATP (75 mM MnCl2, 500 μM ATP), recombinant human Src (Upstate Biotechnology, Lake Placid, N.Y.), and Tkip, JAK2 WT peptide, or in the absence of peptide for 10 min at 30° C. Reaction mixtures were spotted on P81 phosphocellulose discs (supplied with kit) to bind phosphorylated Src substrate peptide, washed three times for 5 min with 0.75% phosphoric acid, washed twice with acetone for 1 min, and placed in vials to which 4 ml of ScintiVerse® (Fisher, Pittsburgh, Pa.) was added. The phosphocellulose discs were analyzed using a liquid scintillation counter to measure ^32P-labeled proteins. For comparison with Src, JAK2 was also assayed using the same procedure. The assay was setup as described above for the Src kinase assay. However, reactions were incubated in the presence of 2 mM dithioreitol in the buffer to release JAK2 from the agarose beads. Following the appropriate incubation period reactions were gently centrifuged. […]

Assay [4] concerns the target T4, p-JAK2 WT peptide (phosphorylated at 1007Y) (Homo sapiens, UniProt O60674).
T4 construct: made in house; host or cells: chemical synthesis (Fmoc)
In words: Solid phase binding of biotinylated phosphorylated JAK2 WT peptide to immobilized Tkip. The conditions noted are these: FIG. 4. As to the method: (§4) Binding assays: For ELISA binding assays Tkip and other peptides to be tested were bound to 96-well plates in 0.1 M carbonate binding buffer (pH 9.6) at a final concentration of 3 μg/well (50 μl). Wells were then washed three times with wash buffer containing 0.9% NaCl and 0.05% tween-20 in PBS and blocked with 2% gelatin and 0.05% tween-20 in PBS for 1 h at room temperature. Wells were then washed three times with wash buffer and incubated with various concentrations of biotinylated JAK2 WT peptide and biotinylated P-JAK2 WT peptide for 1 h at room temperature in blocking buffer. Following incubation, wells were washed five times with wash buffer to remove any unbound biotinylated peptides. Bound biotinylated peptides were detected by incubation with a 1:500 dilution of NEUTRAVIDIN biotin binding-protein conjugated with horseradish peroxidase (Molecular Probes, Eugene, Oreg.) in blocking buffer for 1 h at room temperature. Wells were then washed five times with wash buffer and developed with a solution of o-phenylenediamine (OPD) in stable peroxidase buffer (Pierce, Rockford, Ill.). The assay was stopped with the addition of 2 M H2SO4 (50 μl) to each well. Absorbance was measured using a 450 microplate reader (Bio-rad, Hercules, Calif.) at 490 nm. Control experiments were carried out as described above in the absence of immobilized peptides.

Assay [5] addresses T5, JAK2 WT peptide (JAK2 autophosphorylation site 1001LPQDKEYYKVKEP) (Homo sapiens, UniProt O60674).
T5 construct: made in house; host or cells: chemical synthesis (Fmoc)
Description: ELISA binding of biotinylated JAK2 WT peptide to solid-phase peptides. As to the method: as §4
Background: ELISA stands for enzyme-linked immunosorbent assay.

In assay [6] the target is T6, JAK2/IFNGR-1 (Homo sapiens, UniProt O60674).
T6 construct: purchased Upstate Biotechnology, Lake Placid, N.Y
In words: JAK2 kinase assay processed on P81 phosphocellulose discs (32P incorporation). Particulars: peptide at 50 μM; FIG. 2D. The format is biochemical. How it is done: as §3

Assay [7] concerns experimental allergic encephalomyelitis. Description: Experimental allergic encephalomyelitis (EAE) in MBP-immunized NZW mice. Format: in vivo. As to the method:
NZW mice were injected intraperitoneally with PBS or Tkip (63 μg/mouse) every other day starting the day of immunization with myelin basic protein (MBP) for induction of EAE. Mice were followed daily for signs of EAE, and mean severity of paralysis for each group was graded based on the following scale: 1, loss of tail tone, 2, hind leg weakness, 3, paraparesis, 4, paraplegia, 5, moribund, death. […] All mice in the control group had disease (disease incidence=4/4), while one mouse in the Tkip group had disease (disease incidence=1/5).
NZW mice were immunized with myelin basic protein (MBP) (300 ug) emulsified in complete Freund's adjuvant for the induction of experimental allergic encephalomyelitis (EAE). Tkip peptide (63 μg/mouse) was administered to mice every other day starting the day of immunization. Phosphate buffered saline (PBS) was used as the vehicle of transfer and as the control agent for the treatment of the control group. Mice were followed daily for signs of EAE and mean severity of paralysis for each group was graded based on the scale presented in the legend of FIG. 9. […] Furthermore, the mean severity of disease for the control group (2.1) was twice as high as that of the Tkip group (0.8) at its peak. The time of onset of disease for the control group and Tkip-treated group was similar (24 days post immnunization). Thus, treatment of MBP-immunized mice with Tkip peptide protects them from the autoimmune disease, EAE.

Assay [8] concerns the target T7, EGFR (Homo sapiens, UniProt P00533).
T7 construct: human EGFR isolated from A431 cells; purchased Upstate Biotechnology, Lake Placid, N.Y; host or cells: A431 cells (endogenous receptor, isolated)
In words: In vitro EGFR autophosphorylation kinase assay. The format is biochemical. The conditions noted are these: peptide at 50 μM; FIG. 2E. How it is done: as §1, §2

T1 sequence (O60674 whole entry): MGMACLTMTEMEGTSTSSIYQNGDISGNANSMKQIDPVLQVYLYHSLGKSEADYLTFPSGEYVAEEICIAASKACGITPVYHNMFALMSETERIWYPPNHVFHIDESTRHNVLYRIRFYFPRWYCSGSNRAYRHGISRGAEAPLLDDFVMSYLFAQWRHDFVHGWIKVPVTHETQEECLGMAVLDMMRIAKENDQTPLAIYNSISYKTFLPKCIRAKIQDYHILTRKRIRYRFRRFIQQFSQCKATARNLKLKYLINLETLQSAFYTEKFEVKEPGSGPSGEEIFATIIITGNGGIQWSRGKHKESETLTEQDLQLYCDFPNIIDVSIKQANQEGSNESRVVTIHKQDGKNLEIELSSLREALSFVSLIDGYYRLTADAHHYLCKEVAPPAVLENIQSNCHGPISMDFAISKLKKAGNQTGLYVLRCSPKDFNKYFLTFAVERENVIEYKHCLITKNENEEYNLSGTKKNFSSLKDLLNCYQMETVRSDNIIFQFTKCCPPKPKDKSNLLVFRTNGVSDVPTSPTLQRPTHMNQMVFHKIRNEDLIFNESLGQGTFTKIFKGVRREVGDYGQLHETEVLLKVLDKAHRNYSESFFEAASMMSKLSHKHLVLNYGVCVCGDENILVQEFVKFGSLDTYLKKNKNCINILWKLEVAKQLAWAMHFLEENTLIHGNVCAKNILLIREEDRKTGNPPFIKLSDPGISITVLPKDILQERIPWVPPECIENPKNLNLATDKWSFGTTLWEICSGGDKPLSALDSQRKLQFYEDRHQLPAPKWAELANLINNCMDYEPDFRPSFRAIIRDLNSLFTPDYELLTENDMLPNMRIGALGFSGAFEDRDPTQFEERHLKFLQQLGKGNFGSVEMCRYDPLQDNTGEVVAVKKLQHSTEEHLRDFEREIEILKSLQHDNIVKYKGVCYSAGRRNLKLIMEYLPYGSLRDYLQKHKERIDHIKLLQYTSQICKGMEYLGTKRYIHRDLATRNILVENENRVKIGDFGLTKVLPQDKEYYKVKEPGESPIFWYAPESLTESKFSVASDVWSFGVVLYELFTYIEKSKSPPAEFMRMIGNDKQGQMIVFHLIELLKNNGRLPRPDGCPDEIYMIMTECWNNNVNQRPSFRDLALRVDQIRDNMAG
T6 sequence (O60674 whole entry): as above
T2 sequence (P17948 27-1338): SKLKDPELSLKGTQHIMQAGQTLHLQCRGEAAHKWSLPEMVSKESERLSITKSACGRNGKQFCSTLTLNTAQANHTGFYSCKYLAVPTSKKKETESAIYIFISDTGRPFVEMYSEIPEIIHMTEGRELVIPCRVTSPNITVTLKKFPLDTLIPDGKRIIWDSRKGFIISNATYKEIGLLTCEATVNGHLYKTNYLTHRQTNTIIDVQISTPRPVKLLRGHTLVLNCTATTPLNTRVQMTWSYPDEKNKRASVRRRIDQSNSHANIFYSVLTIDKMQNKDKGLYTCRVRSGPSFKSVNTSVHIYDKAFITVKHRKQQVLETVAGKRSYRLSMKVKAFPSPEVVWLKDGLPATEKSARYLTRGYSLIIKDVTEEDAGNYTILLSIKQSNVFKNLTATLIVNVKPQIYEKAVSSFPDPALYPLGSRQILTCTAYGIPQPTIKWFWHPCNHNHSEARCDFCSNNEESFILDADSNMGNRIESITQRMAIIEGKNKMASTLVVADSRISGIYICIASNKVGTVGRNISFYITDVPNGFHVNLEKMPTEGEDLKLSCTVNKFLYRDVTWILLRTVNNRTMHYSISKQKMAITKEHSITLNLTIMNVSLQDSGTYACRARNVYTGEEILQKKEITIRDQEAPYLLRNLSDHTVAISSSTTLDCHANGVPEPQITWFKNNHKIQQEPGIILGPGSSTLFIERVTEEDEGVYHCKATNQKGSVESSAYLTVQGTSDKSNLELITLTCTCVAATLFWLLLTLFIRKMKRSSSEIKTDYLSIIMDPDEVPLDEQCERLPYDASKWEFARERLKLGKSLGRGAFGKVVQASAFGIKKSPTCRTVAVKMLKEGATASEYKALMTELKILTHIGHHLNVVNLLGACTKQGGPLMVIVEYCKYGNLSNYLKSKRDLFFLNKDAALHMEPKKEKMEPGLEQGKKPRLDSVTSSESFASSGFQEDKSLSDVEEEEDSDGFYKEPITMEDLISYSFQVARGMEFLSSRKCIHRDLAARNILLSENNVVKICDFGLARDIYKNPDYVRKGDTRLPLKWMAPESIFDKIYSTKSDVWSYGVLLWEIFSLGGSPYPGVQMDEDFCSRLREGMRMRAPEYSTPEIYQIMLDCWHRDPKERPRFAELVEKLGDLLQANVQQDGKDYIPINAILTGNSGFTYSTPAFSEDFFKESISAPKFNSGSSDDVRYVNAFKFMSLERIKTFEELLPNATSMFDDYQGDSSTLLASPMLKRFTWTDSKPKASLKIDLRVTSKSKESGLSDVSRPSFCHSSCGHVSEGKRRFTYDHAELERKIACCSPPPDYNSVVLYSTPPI

Consider “WLVFFVIFYFFR (amino acid sequence of a peptide that can be used according to the present invention) [Tkip]”, for which, in assay [1], the “inhibition of JAK2 autophosphorylation” value was “completely inhibited; also recorded: also inhibited” and the “inhibition of JAK2 phosphorylation of IFNGR-1” value is given as “completely inhibited; also recorded: also inhibited”. Also, the “inhibition of VEGFR autophosphorylation” value in assay [2] is “did not inhibit”. In addition, the “inhibition of c-src phosphorylation of a protein substrate” value in assay [3] is “failed to inhibit”. Also, in assay [4], the “fifty percent endpoint concentration, fold lower for p-JAK2 WT binding versus unphosphorylated JAK2 WT binding” value was “approximately 9 fold”. In addition, the “binding of Tkip to p-JAK2 WT” value in assay [4] (immobilized Tkip) is “binding was most efficient to p-JAK2 WT”. For the same sequence, the “binding of biotinylated JAK2 WT peptide to solid-phase peptide” value in assay [5] (FIG. 1A, ELISA, peptides coated on 96-well plates) was “bound only to Tkip peptide in a dose-dependent manner”. The “binding of Tkip to unphosphorylated JAK2 WT” value in assay [5] (FIG. 4, immobilized Tkip) is “bound both JAK2 WT and p-JAK2 WT in a dose-dependent manner”. For the same sequence, the “inhibition of 32P incorporation into JAK2/IFNGR-1” value in assay [6] is listed as “greater than 95%”. In addition, the “time of onset of disease” value in assay [7] (63 μg/mouse every other day) was 24 days post immnunization. The “mean severity of disease (paralysis scale 1-5)” value in assay [7] (63 μg/mouse every other day, at its peak) is given as 0.8. Further, the “incidence of disease (EAE)” value in assay [7] (63 μg/mouse intraperitoneally every other day from day of immunization) is reported as 1/5. For the same sequence, the “inhibition of EGFR autophosphorylation” value in assay [8] is on record as “completely inhibited”.
